Assay results published in publication PMC7083938, “NELL2-Robo3 complex structure reveals mechanisms of receptor activation for axon guidance” (Nature Communications, 2020).

What was measured:
[1] = biological target: T1, hRobo3 FN1-3 displayed on S2 cells (human, UniProt Q96MS0 549-870); assay: flow cytometry on cells; biotinylated ligand at various concentrations, 30 min at 4 °C in PBS + 0.1% BSA, on Drosophila S2 cells displaying the partner (C-terminal FLAG, rat Neurexin-1 transmembrane helix); Cy5-streptavidin; gated on anti-FLAG positive cells; MFI fit to a single-site model; apparent KD; details: one partner purified
T1 construct: human Robo3, FN domains 1-3, P549-L870; also called Robo3FN1-3 WT (Actin 5C, C-terminal FLAG); source: Drosophila S2 cells, transiently transfected, on the cell surface; not shown: FLAG, C-terminal, kept; transmembrane helix of rat Neurexin-1, C-terminal, kept
T1 sequence (looked up): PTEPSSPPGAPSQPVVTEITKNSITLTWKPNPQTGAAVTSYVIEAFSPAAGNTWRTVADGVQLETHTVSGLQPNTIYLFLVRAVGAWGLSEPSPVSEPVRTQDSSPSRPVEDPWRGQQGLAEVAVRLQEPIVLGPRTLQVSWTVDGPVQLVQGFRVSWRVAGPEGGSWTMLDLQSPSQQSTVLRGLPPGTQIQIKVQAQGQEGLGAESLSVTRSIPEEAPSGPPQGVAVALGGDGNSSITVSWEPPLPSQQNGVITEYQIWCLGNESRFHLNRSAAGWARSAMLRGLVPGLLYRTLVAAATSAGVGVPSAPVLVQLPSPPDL

[2] = biological target: T2, hRobo3 FN1-3, biotinylated (wild type) (human, UniProt Q96MS0 549-870, biotin on the Avi-tag (BirA)); assay: SPR; biotinylated hRobo3 FN1-3 on an NLC/neutravidin chip, ProteOn XPR36; hNELL2 EGF1-6 as analyte; 25 °C, 10 mM HEPES pH 7.2, 150 mM NaCl, 0.05% Tween-20, 0.1% BSA; equilibrium responses, 1:1 Langmuir; details: both partners purified
T2 construct: human Robo3, FN domains 1-3, P549-L870; also called WT hRobo3 FN; Robo3FN1-3 WT; source: High Five cells (baculovirus), purified (Ni-NTA, SEC), biotinylated with BirA
T2 sequence (looked up): T1 sequence (looked up)

[3] = biological target: T3, mRobo3 FN1-3 (mouse, biotin on the Avi-tag (BirA) for SPR); assay: SPR; biotinylated mRobo3 FN1-3 on a Biacore SA chip; mNELL2 EGF1-6 WT and mutants as analytes over the same channel; 20 s 10 mM EDTA pH 8, 150 mM NaCl between runs; 25 °C, 10 mM HEPES pH 7.2, 150 mM NaCl, 0.05% Tween-20, 0.1% BSA; equilibrium, 1:1 Langmuir; details: both partners purified
T3 construct: also called Robo3FN1-3 (Polyhedrin, mouse); source: High Five cells (baculovirus), purified (Ni-NTA, SEC); biotinylated with BirA for SPR; not shown: His6, C-terminal, kept

[4] = biological target: T2, hRobo3 FN1-3, biotinylated (wild type); assay: SPR; as a6 but with additional 10 mM EDTA in all buffers; details: both partners purified
[5] = biological target: T2, hRobo3 FN1-3, biotinylated (wild type); assay: SPR; biotinylated hRobo3 FN1-3 on an SA chip, Biacore 3000; hNELL1 EGF1-3 or hNELL2 EGF1-3 as analyte; equilibrium isotherms; details: both partners purified
[6] = biological target: the molecule itself; assay: AUC; sedimentation velocity, concentration series (mRobo3 0.6-20 µM at 200,000 g; mRobo1 0.9-9.8 µM at 140,000 g), 20 °C, c(s) analysis
[7] = biological target: the molecule itself; assay: SEC-SAXS; Superose 6 Increase 10/300 in HBS at APS BioCAT beamline 18; molecular weight from the scattering
[8] = biological target: the molecule itself; assay: SEC-MALS; Wyatt HELEOS II coupled to an AKTA FPLC, Superose Increase 6 10/300, HBS; Zimm model

B1: hNELL2 EGF1-6, biotinylated (wild type) (domain or fragment)
chain: not shown
modifications: biotin on the Avi-tag (BirA)
notes: human NELL2, EGF domains 1-6, G397-T637; also called WT hNELL2 EGF; NELL2EGF1-6 WT; source: High Five cells (baculovirus), purified (Ni-NTA, SEC), biotinylated with BirA
With B1 the Kd [1] was 770 nM.

B2: hNELL2 EGF1-6 D476A, biotinylated (domain or fragment)
chain: not shown
modifications: biotin on the Avi-tag (BirA)
notes: human NELL2, EGF domains 1-6, G397-T637; source: High Five cells (baculovirus), purified, biotinylated with BirA (general methods)
B2 gave a Kd [1] of ~50000 nM.

B3: hNELL2 EGF1-6 D477A/Y478A, biotinylated (domain or fragment)
chain: not shown
modifications: biotin on the Avi-tag (BirA)
notes: as for B2
With B3 the Kd [1] was ≥ 100000 nM.

B4: hNELL2 EGF1-6 L498A/F500A, biotinylated (domain or fragment)
chain: not shown
modifications: biotin on the Avi-tag (BirA)
notes: as for B2
B4 was tested, and the Kd [1] was ≥ 100000 nM.

B5: hNELL2 EGF1-6 R448A/Y450A, biotinylated (domain or fragment)
chain: not shown
modifications: biotin on the Avi-tag (BirA)
notes: as for B2
B5 was tested, and the Kd [1] was 9000 nM.

B6: hNELL2 EGF1-6 R452A, biotinylated (domain or fragment)
chain: not shown
modifications: biotin on the Avi-tag (BirA)
notes: as for B2
B6 was tested, and the Kd [1] was 1100 nM.

B7: hNELL2 EGF1-6 V509A, biotinylated (domain or fragment)
chain: not shown
modifications: biotin on the Avi-tag (BirA)
notes: as for B2
B7 gave a Kd [1] of 1500 nM.

B8: hNELL2 EGF1-6 (His-tagged) (domain or fragment)
chain: not shown
notes: human NELL2, EGF domains 1-6, G397-T637; also called NELL2EGF1-6 (Polyhedrin, human); source: High Five cells (baculovirus), purified (Ni-NTA, SEC)
Work on B8 yielded a Kd [2] of 579 nM.

B9: mNELL2 EGF1-6 D477A/Y478A (domain or fragment)
chain: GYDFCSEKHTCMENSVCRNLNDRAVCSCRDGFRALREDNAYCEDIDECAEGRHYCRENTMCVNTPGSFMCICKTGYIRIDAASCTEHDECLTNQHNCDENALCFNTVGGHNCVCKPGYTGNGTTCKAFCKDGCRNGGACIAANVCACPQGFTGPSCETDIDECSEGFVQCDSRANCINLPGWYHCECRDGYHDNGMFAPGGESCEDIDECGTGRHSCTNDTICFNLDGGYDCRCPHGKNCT
B9 was tested, and the Kd [3] was ≥ 100000 nM.

B10: mNELL2 EGF1-6 L498A/F500A (domain or fragment)
chain: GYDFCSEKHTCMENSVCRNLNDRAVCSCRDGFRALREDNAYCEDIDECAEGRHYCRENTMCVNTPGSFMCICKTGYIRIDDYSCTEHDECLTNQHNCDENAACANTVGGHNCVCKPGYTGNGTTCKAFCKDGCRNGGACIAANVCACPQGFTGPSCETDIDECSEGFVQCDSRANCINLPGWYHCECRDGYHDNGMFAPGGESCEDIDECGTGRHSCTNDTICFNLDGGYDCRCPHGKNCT
With B10 the Kd [3] was ≥ 100000 nM.

B11: hNELL2 EGF1-3 (domain or fragment, human, UniProt Q99435 397-523, looked up)
chain: GYDFCSERHNCMENSICRNLNDRAVCSCRDGFRALREDNAYCEDIDECAEGRHYCRENTMCVNTPGSFMCICKTGYIRIDDYSCTEHDECITNQHNCDENALCFNTVGGHNCVCKPGYTGNGTTCKA
notes: human NELL2, EGF domains 1-3, G397-A523; also called NELL2EGF1-3 (Polyhedrin, human); source: High Five cells (baculovirus), purified (Ni-NTA, SEC)
B11 showed a Kd [4] of 790 nM and a Kd [5] of 250 nM.

B12: hNELL1 EGF1-3 (domain or fragment, human, UniProt Q92832 390-517, looked up)
chain: RGHNFCAEGPKCGENSECKNWNTKATCECKSGYISVQGDSAYCEDIDECAAKMHYCHANTVCVNLPGLYRCDCVPGYIRVDDFSCTEHDECGSGQHNCDENAICTNTVQGHSCTCKPGYVGNGTICRA
notes: human NELL1, EGF domains 1-3, R390-A517; also called NELL1EGF1-3 (Polyhedrin, human); source: High Five cells (baculovirus), purified (Ni-NTA, SEC)
B12 was tested, and the Kd [4] was 2710 nM and the Kd [5] was 460 nM.

B13: mRobo1 ectodomain (domain or fragment, mouse, UniProt O89026 30-840, looked up)
chain: RIVEHPSDLIVSKGEPATLNCKAEGRPTPTIEWYKGGERVETDKDDPRSHRMLLPSGSLFFLRIVHGRKSRPDEGVYICVARNYLGEAVSHNASLEVAILRDDFRQNPSDVMVAVGEPAVMECQPPRGHPEPTISWKKDGSPLDDKDERITIRGGKLMITYTRKSDAGKYVCVGTNMVGERESEVAELTVLERPSFVKRPSNLAVTVDDSAEFKCEARGDPVPTVRWRKDDGELPKSRYEIRDDHTLKIRKVTAGDMGSYTCVAENMVGKAEASATLTVQEPPHFVVKPRDQVVALGRTVTFQCEATGNPQPAIFWRREGSQNLLFSYQPPQSSSRFSVSQTGDLTITNVQRSDVGYYICQTLNVAGSIITKAYLEVTDVIADRPPPVIRQGPVNQTVAVDGTLILSCVATGSPAPTILWRKDGVLVSTQDSRIKQLESGVLQIRYAKLGDTGRYTCTASTPSGEATWSAYIEVQEFGVPVQPPRPTDPNLIPSAPSKPEVTDVSKNTVTLSWQPNLNSGATPTSYIIEAFSHASGSSWQTAAENVKTETFAIKGLKPNAIYLFLVRAANAYGISDPSQISDPVKTQDVPPTSQGVDHKQVQRELGNVVLHLHNPTILSSSSVEVHWTVDQQSQYIQGYKILYRPSGASHGESEWLVFEVRTPTKNSVVIPDLRKGVNYEIKARPFFNEFQGADSEIKFAKTLEEAPSAPPRSVTVSKNDGNGTAILVTWQPPPEDTQNGMVQEYKVWCLGNETKYHINKTVDGSTFSVVIPSLVPGIRYSVEVAASTGAGPGVKSEPQFIQLDSHGNPVS
notes: mouse Robo1, extracellular domain, R30-S840; C-terminal Avi and His; also called mRobo1 ECD; Robo1ECD; source: High Five cells (baculovirus), purified (Ni-NTA, SEC)
In the case of B13, the “stoichiometry N” value [6] is reported as 2.

B14: hNELL2 (full length) (ligand, human, UniProt Q99435 22-816, looked up)
chain: LGVDPSLQIDVLTELELGESTTGVRQVPGLHNGTKAFLFQDTPRSIKASTATAEQFFQKLRNKHEFTILVTLKQTHLNSGVILSIHHLDHRYLELESSGHRNEVRLHYRSGSHRPHTEVFPYILADDKWHKLSLAISASHLILHIDCNKIYERVVEKPSTDLPLGTTFWLGQRNNAHGYFKGIMQDVQLLVMPQGFIAQCPDLNRTCPTCNDFHGLVQKIMELQDILAKTSAKLSRAEQRMNRLDQCYCERTCTMKGTTYREFESWIDGCKNCTCLNGTIQCETLICPNPDCPLKSALAYVDGKCCKECKSICQFQGRTYFEGERNTVYSSSGVCVLYECKDQTMKLVESSGCPALDCPESHQITLSHSCCKVCKGYDFCSERHNCMENSICRNLNDRAVCSCRDGFRALREDNAYCEDIDECAEGRHYCRENTMCVNTPGSFMCICKTGYIRIDDYSCTEHDECITNQHNCDENALCFNTVGGHNCVCKPGYTGNGTTCKAFCKDGCRNGGACIAANVCACPQGFTGPSCETDIDECSDGFVQCDSRANCINLPGWYHCECRDGYHDNGMFSPSGESCEDIDECGTGRHSCANDTICFNLDGGYDCRCPHGKNCTGDCIHDGKVKHNGQIWVLENDRCSVCSCQNGFVMCRRMVCDCENPTVDLFCCPECDPRLSSQCLHQNGETLYNSGDTWVQNCQQCRCLQGEVDCWPLPCPDVECEFSILPENECCPRCVTDPCQADTIRNDITKTCLDEMNVVRFTGSSWIKHGTECTLCQCKNGHICCSVDPQCLQEL
notes: human NELL2, L22-L816; trimer by SAXS; also called NELL2FL (Polyhedrin, human); source: High Five cells (baculovirus), purified (Ni-NTA, SEC)
With B14 the “stoichiometry N” value [7] was 3.

B15: full-length human NELL2 (ligand, UniProt Q99435 22-816, looked up)
chain: B14 chain
notes: NELL2, human; called full-length; the methods say that mature domains were cloned into pAcGP67A; Trimer by MALS and SAXS; also called hNELL2; full-length hNELL2; source: High Five cells (baculovirus), secreted, purified (Ni-NTA, SEC)
With B15 the “stoichiometry N” value [8] was 3.

B16: mouse NELL1 (ligand, UniProt Q2VWQ2 22-810, looked up)
chain: FGMDPDLQMDIITELDLVNTTLGVTQVAGLHNASKAFLFQDVQREIHSAPHVSEKLIQLFRNKSEFTFLATVQQKPSTSGVILSIRELEHSYFELESSGPREEIRYHYIHGGKPRTEALPYRMADGQWHKVALSVSASHLLLHVDCNRIYERVIDPPETNLPPGSNLWLGQRNQKHGFFKGIIQDGKIIFMPNGFITQCPNLNRTCPTCSDFLSLVQGIMDLQELLAKMTAKLNYAETRLGQLENCHCEKTCQVSGLLYRDQDSWVDGDNCRNCTCKSGAVECRRMSCPPLNCSPDSLPVHISGQCCKVCRPKCIYGGKVLAEGQRILTKTCRECRGGVLVKITEACPPLNCSEKDHILPENQCCRVCRGHNFCAEAPKCGENSECKNWNTKATCECKNGYISVQGNSAYCEDIDECAAKMHYCHANTVCVNLPGLYRCDCIPGYIRVDDFSCTEHDDCGSGQHNCDKNAICTNTVQGHSCTCQPGYVGNGTVCKAFCEEGCRYGGTCVAPNKCVCPSGFTGSHCEKDIDECAEGFVECHNHSRCVNLPGWYHCECRSGFHDDGTYSLSGESCIDIDECALRTHTCWNDSACINLAGGFDCLCPSGPSCSGDCPHEGGLKHNGQVWILREDRCSVCSCKDGKIFCRRTACDCQNPNVDLFCCPECDTRVTSQCLDQSGQKLYRSGDNWTHSCQQCRCLEGEADCWPLACPSLSCEYTAIFEGECCPRCVSDPCLADNIAYDIRKTCLDSSGISRLSGAVWTMAGSPCTTCQCKNGRVCCSVDLVCLENN
notes: NELL1, mouse; the methods say that mature domains were cloned into pAcGP67A; Trimer by MALS; also called mNELL1; source: High Five cells (baculovirus), secreted, purified (Ni-NTA, SEC)
For B16, the “stoichiometry N” value [8] was 3.
